The values that follow come from US7063946B2, “Methods, reagents, kits and apparatus for protein function analysis” (Meso Scale Technologies, LLC., priority 2001, dated 2006).

What all share (assay type): biochemical
For test [1], the system named is autophosphorylation (phosphotyrosine). As to the kind of experiment: In vitro kinase library screen: autophosphorylation. Put shortly:
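ECL read-out after 45 min with Sulfo-TAG anti-phosphotyrosine antibody. Before that, immobilized in vitro-translated biotinylated SYK or EphA7 autophosphorylated overnight at room temperature in Tris pH 7.4 containing 100 μM ATP plus Mn++ and Mg++ (5 mM each).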

The next test concerns pEY. The test can be described thus: In vitro kinase library screen: activity towards pEY. To be noted: 5 ul of expressed protein. The procedure, abridged: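 ECL read-out: phosphorylated poly(Glu-Tyr) bound on a PY20-coated plate, then probed with Sulfo-TAG-labelled anti-phosphotyrosine. The reaction beforehand ran overnight at room temperature with 100 µM ATP, 5 mM MgCl2, 5 mM MnCl2 and 5 nM pEY substrate. Enzymes were TnT-expressed, biotinylated and immobilised, with stringent washes.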

A further test concerns pEY (poly Glu-Tyr). The test can be described thus: Tyrosine kinase activity assay of immobilized in vitro translated protein towards pEY. How it is done:
Proteins were produced in an in vitro transcription and translation reaction. […] The unbound components of the reaction containing endogenous kinases were removed by three washes with TT-buffer (25 mM Tris-HCl buffer pH 7.4 and 0.004% Triton), two five minutes washings with high-salt wash buffer (25 mM Tris-HCl buffer pH 7.4, 0.004% Triton, 1M NaCl and 5 mM DTT) and 3 more washes with TT-buffer. To these immobilized and purified proteins a tyrosine kinase substrate, 5 nM pEY (poly Glu-Tyr, Sigma, MO), was added in a 50 μl reaction solution containing 5 mM MgCl2, 5 mM MnCl2, 100 μM ATP, 25 mM Tris-HCl buffer pH 7.4, 0.05 mM Na3VO4, 0.004% TritonX-100, 2 mM DTT and EDTA-free protease inhibitor (Roche Molecular Biochemicals). This mixture was incubated with shaking at room temperature overnight to allow phosphorylation of the pEY substrate by the immobilized kinases. Following this incubation, 45 μl of this mixture was transferred to a streptavidin or avidin-coated NPT IPR plate coated with biotinylated anti-phosphotyrosine antibody (PY20, Zymed labs, CA) followed by incubation for 30 minutes at room temperature to allow the binding of the phosphorylated pEY substrate to the PY20 coated NPT plate. Following this binding step, 50 ng Sulfo-TAG labeled anti-phosphotyrosine in buffer containing 25 mM Tris-HCl buffer pH 7.4, 5 mM MgCl2, 0.05 mM Na3VO4, 0.004% TritonX-100, 2 mM DTT and 0.05% IgG was added followed by incubation at room temperature for 30 mm. The unbound reagents were removed by one time washing with water, and the TAG label was detected in presence of 150 μl IPR assay buffer (0.4 mM Gly-Gly buffer, pH 7.8, 1 mM EDTA, 0.1 M TPA). The ECL signals were measured using an imaging plate reader.

B1: 2654352: IMAGE clone protein: Fgfr2, fibroblast growth factor receptor 2 (protein, UniProt P21803 22-821, looked up)
Fibroblast growth factor …: RPSFSLVEDTTLEPEEPPTKYQISQPEAYVVAPGESLELQCMLKDAAVISWTKDGVHLGPNNRTVLIGEYLQIKGATPRDSGLYACTAARTVDSETWIFMVNVTDAISSGDDEDDTDSSEDVVSENRSNQRAPYWTNTEKMEKRLHACPAANTVKFRCPAGGNPTSTMRWLKNGKEFKQEHRIGGYKVRNQHWSLIMESVVPSDKGNYTCLVENEYGSINHTYHLDVVERSPHRPILQAGLPANASTVVGGDVEFVCKVYSDAQPHIQWIKHVEKNGSKNGPDGLPYLKVLKAAGVNTTDKEIEVLYIRNVTFEDAGEYTCLAGNSIGISFHSAWLTVLPAPVREKEITASPDYLEIAIYCIGVFLIACMVVTVIFCRMKTTTKKPDFSSQPAVHKLTKRIPLRRQVTVSAESSSSMNSNTPLVRITTRLSSTADTPMLAGVSEYELPEDPKWEFPRDKLTLGKPLGEGCFGQVVMAEAVGIDKDKPKEAVTVAVKMLKDDATEKDLSDLVSEMEMMKMIGKHKNIINLLGACTQDGPLYVIVEYASKGNLREYLRARRPPGMEYSYDINRVPEEQMTFKDLVSCTYQLARGMEYLASQKCIHRDLAARNVLVTENNVMKIADFGLARDINNIDYYKKTTNGRLPVKWMAPEALFDRVYTHQSDVWSFGVLMWEIFTLGGSPYPGIPVEELFKLLKEGHRMDKPTNCTNELYMMMRDCWHAVPSQRPTFKQLVEDLDRILTLTTNEEYLDLTQPLEQYSPSYPDTSSSCSSGDDSVFSPDPMPYEPCLPQYPHINGSVKT
As to B1, the ECL signal in test [1] is 180,059. For the same molecule, the HTS signal in the test with pEY was 296,481.

B2: 4485050: IMAGE clone protein: Fert2, fer (fms/fps related) protein kinase, testis specific 2 (protein, UniProt P70451 1-823, looked up)
Tyrosine-protein kinase Fer: MGFGSDLKNSQEAVLKLQDWELRLLETVKKFMALRIKSDKEYAYTLQNLCNQVDKESTVQVNYVSNVSKSWLLMIQQTEQLSRIMKTHAEDLNSGPLHRLTMMIKDKQQVKKSYVGIHQQIEAEMIKVTKTELEKLKSSYRQLIKEMNSAKEKYKEALAKGKETEKAKERYDKATMKLHMLHNQYVLALKGAQLHQSQYYDTTLPLLLDSVQKMQEEMIKALKGIFDDYSQITSLVTEEIVNVHKEIQMSVEQIDPSTEYNNFIDVHRTTAAKEQEIEFDTSLLEENENLQANEIMWNNLTADSLQVMLKTLAEELTQTQQMLLHKEAAVLELEKRIEESFETCEKKSDIVLLLGQKQALEELKQSVQQLRCTEAKCAAQKALLEQKVQENDGKEPPPVVNYEEDARSVTSMERKERLSKFESIRHSIAGIIKSPKSVLGSSTQVCDVISVGERPLAEHDWYHGAIPRIEAQELLKQQGDFLVRESHGKPGEYVLSVYSDGQRRHFIIQFVDNLYRFEGTGFSNIPQLIDHHFNTKQVITKKSGVVLLNPIPKDKKWVLNHEDVSLGELLGKGNFGEVYKGTLKDKTPVAIKTCKEDLPQELKIKFLQEAKILKQYDHPNIVKLIGVCTQRQPVYIIMELVPGGDFLTFLRKRKDELKLKQLVRFSLDVAAGMLYLESKNCIHRDLAARNCLVGENNTLKISDFGMSRQEDGGVYSSSGLKQIPIKWTAPEALNYGRYSSESDVWSFGILLWETFSLGVCPYPGMTNQQAREQVERGYRMSAPQNCPEEVFTIMMKCWDYKPENRPKFNDLHKELTVIKKMIT
With B2, the ECL signal was 1,350,546 in test [1]; 1,287 in the test with pEY (poly Glu-Tyr) (+EDTA); 1,637,307 in the test on pEY (poly Glu-Tyr) (Control (Table 9)); 4,432 in the test on pEY (poly Glu-Tyr) (DNA 0.001 μg/5 μl); 129,797 in the test on pEY (poly Glu-Tyr) (DNA 0.003 μg/5 μl); 1,440,103 in the test on pEY (poly Glu-Tyr) (DNA 0.010 μg/5 μl). Also, the ECL signal is reported as 1,463,489 with pEY (poly Glu-Tyr) (DNA 0.020 μg/5 μl); 1,523,121 in the test on pEY (poly Glu-Tyr) (DNA 0.040 μg/5 μl); 1,553,370 in the test with pEY (poly Glu-Tyr) (DNA 0.060 μg/5 μl); 1,608,671 with pEY (poly Glu-Tyr) (DNA 0.080 μg/5 μl); 1,687,039 with pEY (poly Glu-Tyr) (DNA 0.100 μg/5 μl); 1,626,868 in the test with pEY (poly Glu-Tyr) (DNA 0.125 μg/5 μl). Moreover, the ECL signal in the test on pEY (poly Glu-Tyr) (complete reaction) is on record as 1,608,671; in the test with pEY (poly Glu-Tyr) (no Mg, no Mn) it was 2,851; in the test with pEY (poly Glu-Tyr) (plasmid +, no pEY), 1,309; in the test on pEY (poly Glu-Tyr) (plasmid +, no tRNA), 1,752. Further, the “fold higher ECL signal than background produced by Mock (Luciferase)” value with pEY (poly Glu-Tyr) (0.5 to 1 μl of TnT reaction) fell in the range of 1000 to 1100 fold. Moreover, in the test on pEY, the HTS signal is reported as 952,661.

B3: 2644960: IMAGE clone protein: Kit, kit oncogene (protein, UniProt P05532 25-979, looked up)
Mast/stem cell growth factor …: SQPSASPGEPSPPSIHPAQSELIVEAGDTLSLTCIDPDFVRWTFKTYFNEMVENKKNEWIQEKAEATRTGTYTCSNSNGLTSSIYVFVRDPAKLFLVGLPLFGKEDSDALVRCPLTDPQVSNYSLIECDGKSLPTDLTFVPNPKAGITIKNVKRAYHRLCVRCAAQRDGTWLHSDKFTLKVRAAIKAIPVVSVPETSHLLKKGDTFTVVCTIKDVSTSVNSMWLKMNPQPQHIAQVKHNSWHRGDFNYERQETLTISSARVDDSGVFMCYANNTFGSANVTTTLKVVEKGFINISPVKNTTVFVTDGENVDLVVEYEAYPKPEHQQWIYMNRTSANKGKDYVKSDNKSNIRYVNQLRLTRLKGTEGGTYTFLVSNSDASASVTFNVYVNTKPEILTYDRLINGMLQCVAEGFPEPTIDWYFCTGAEQRCTTPVSPVDVQVQNVSVSPFGKLVVQSSIDSSVFRHNGTVECKASNDVGKSSAFFNFAFKGNNKEQIQAHTLFTPLLIGFVVAAGAMGIIVMVLTYKYLQKPMYEVQWKVVEEINGNNYVYIDPTQLPYDHKWEFPRNRLSFGKTLGAGAFGKVVEATAYGLIKSDAAMTVAVKMLKPSAHLTEREALMSELKVLSYLGNHMNIVNLLGACTVGGPTLVITEYCCYGDLLNFLRRKRDSFIFSKQEEQAEAALYKNLLHSTEPSCDSSNEYMDMKPGVSYVVPTKTDKRRSARIDSYIERDVTPAIMEDDELALDLDDLLSFSYQVAKGMAFLASKNCIHRDLAARNILLTHGRITKICDFGLARDIRNDSNYVVKGNARLPVKWMAPESIFSCVYTFESDVWSYGIFLWELFSLGSSPYPGMPVDSKFYKMIKEGFRMVSPEHAPAEMYDVMKTCWDADPLKRPTFKQVVQLIEKQISDSTKHIYSNLANCNPNPENPVVVDHSVRVNSVGSSASSTQPLLVHEDA
Regarding B3, in test [1], the ECL signal is given as 88,966. The HTS signal in the test with pEY is given as 9,164.

B4: 3482498: IMAGE clone protein: Tek, endothelial-specific receptor tyrosine kinase (protein, UniProt Q02858 23-1122, looked up)
Angiopoietin-1 receptor: AMDLILINSLPLVSDAETSLTCIASGWHPHEPITIGRDFEALMNQHQDPLEVTQDVTREWAKKVVWKREKASKINGAYFCEGRVRGQAIRIRTMKMRQQASFLPATLTMTVDRGDNVNISFKKVLIKEEDAVIYKNGSFIHSVPRHEVPDILEVHLPHAQPQDAGVYSARYIGGNLFTSAFTRLIVRRCEAQKWGPDCSRPCTTCKNNGVCHEDTGECICPPGFMGRTCEKACEPHTFGRTCKERCSGPEGCKSYVFCLPDPYGCSCATGWRGLQCNEACPSGYYGPDCKLRCHCTNEEICDRFQGCLCSQGWQGLQCEKEGRPRMTPQIEDLPDHIEVNSGKFNPICKASGWPLPTSEEMTLVKPDGTVLQPNDFNYTDRFSVAIFTVNRVLPPDSGVWVCSVNTVAGMVEKPFNISVKVLPEPLHAPNVIDTGHNFAIINISSEPYFGDGPIKSKKLFYKPVNQAWKYIEVTNEIFTLNYLEPRTDYELCVQLARPGEGGEGHPGPVRRFTTASIGLPPPRGLSLLPKSQTALNLTWQPIFTNSEDEFYVEVERRSLQTTSDQQNIKVPGNLTSVLLSNLVPREQYTVRARVNTKAQGEWSEELRAWTLSDILPPQPENIKISNITDSTAMVSWTIVDGYSISSIIIRYKVQGKNEDQHIDVKIKNATVTQYQLKGLEPETTYHVDIFAENNIGSSNPAFSHELRTLPHSPASADLGGGKMLLIAILGSAGMTCITVLLAFLIMLQLKRANVQRRMAQAFQNREEPAVQFNSGTLALNRKAKNNPDPTIYPVLDWNDIKFQDVIGEGNFGQVLKARIKKDGLRMDAAIKRMKEYASKDDHRDFAGELEVLCKLGHHPNIINLLGACEHRGYLYLAIEYAPHGNLLDFLRKSRVLETDPAFAIANSTASTLSSQQLLHFAADVARGMDYLSQKQFIHRDLAARNILVGENYIAKIADFGLSRGQEVYVKKTMGRLPVRWMAIESLNYSVYTTNSDVWSYGVLLWEIVSLGGTPYCGMTCAELYEKLPQGYRLEKPLNCDDEVYDLMRQCWREKPYERPSFAQILVSLNRMLEERKTYVNTTLYEKFTYAGIDCSAEEAA
For the molecule B4, in test [1], the ECL signal was 84,706. In addition, the HTS signal in the test with pEY is on record as 10,287.
